The values that follow come from publication PMC3074123.

For series [1], the target named is EndA(H160G/R209A/K210A) (Streptococcus pneumoniae, UniProt P0A3S3 31-274, H160G;R209A;K210A). The experiment in a line: EMSA.
In series [2] the target is EndA(H160G/R127A/K128A) (Streptococcus pneumoniae, UniProt P0A3S3 31-274, H160G;R127A;K128A). The experiment in a line: EMSA.

B1: 24 bp duplex (dsDNA)
DNA 1: GCAAGGTGCGTGCAGCCTTGGACC
DNA 2: GGTCCAAGGCTGCACGCACCTTGC
Regarding B1, the binding result in series [1] and in series [2] was “no binding” in each case.
